From US20250027090, “MIRROR-IMAGE SELECTION OF L-NUCLEIC ACID APTAMERS” (Tsinghua University, published 2025) come the findings set out here.

The series concerns the target thrombin (native human beta-thrombin) (Homo sapiens, UniProt P00734;P00734 P00734:328-363,P00734:364-622). The series is described as follows: ITC; physiological buffer pH 7.4, 25 C.

B1: D-6 aptamer (ssDNA)
DNA: CGGATCCAGTTACGGACTGAACAGAAGGGTGGTGTGGTTGGACTGTTCATTCAGTAAGCTTCGG
Usually Kd stands for the constant that tells how readily two partners part at equilibrium. In turn, B1 registered a dissociation constant (Kd) of 27 nM.
